Reference: doi:10.1101/2020.10.13.338178
No end group written: not given here. *: point of attachment. AMC = Cc1cc(=O)oc2cc(N*)ccc12

T1: Plasmodium falciparum M17 leucine aminopeptidase (Plasmodium falciparum) (UniProt Q8IL11)
T1 sequence: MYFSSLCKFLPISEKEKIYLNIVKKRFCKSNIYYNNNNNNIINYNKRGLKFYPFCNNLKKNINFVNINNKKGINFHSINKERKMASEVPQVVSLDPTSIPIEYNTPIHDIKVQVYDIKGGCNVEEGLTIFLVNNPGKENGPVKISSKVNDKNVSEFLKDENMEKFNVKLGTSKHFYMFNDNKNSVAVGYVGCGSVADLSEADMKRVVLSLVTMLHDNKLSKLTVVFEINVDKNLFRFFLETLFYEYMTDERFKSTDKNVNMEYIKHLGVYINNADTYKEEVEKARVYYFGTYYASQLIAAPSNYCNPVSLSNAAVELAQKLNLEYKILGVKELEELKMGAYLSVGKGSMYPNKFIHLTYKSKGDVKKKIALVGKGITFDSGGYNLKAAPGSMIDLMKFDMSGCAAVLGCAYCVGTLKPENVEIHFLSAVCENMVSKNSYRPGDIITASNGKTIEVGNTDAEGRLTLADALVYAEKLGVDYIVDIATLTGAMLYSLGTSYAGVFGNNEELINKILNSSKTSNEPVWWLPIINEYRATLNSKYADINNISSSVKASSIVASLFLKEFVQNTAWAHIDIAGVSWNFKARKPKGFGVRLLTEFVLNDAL

T2: Plasmodium vivax M17 aminopeptidase (Plasmodium vivax) (UniProt A5K3U9)
T2 sequence (A5K3U9 74-621, looked up): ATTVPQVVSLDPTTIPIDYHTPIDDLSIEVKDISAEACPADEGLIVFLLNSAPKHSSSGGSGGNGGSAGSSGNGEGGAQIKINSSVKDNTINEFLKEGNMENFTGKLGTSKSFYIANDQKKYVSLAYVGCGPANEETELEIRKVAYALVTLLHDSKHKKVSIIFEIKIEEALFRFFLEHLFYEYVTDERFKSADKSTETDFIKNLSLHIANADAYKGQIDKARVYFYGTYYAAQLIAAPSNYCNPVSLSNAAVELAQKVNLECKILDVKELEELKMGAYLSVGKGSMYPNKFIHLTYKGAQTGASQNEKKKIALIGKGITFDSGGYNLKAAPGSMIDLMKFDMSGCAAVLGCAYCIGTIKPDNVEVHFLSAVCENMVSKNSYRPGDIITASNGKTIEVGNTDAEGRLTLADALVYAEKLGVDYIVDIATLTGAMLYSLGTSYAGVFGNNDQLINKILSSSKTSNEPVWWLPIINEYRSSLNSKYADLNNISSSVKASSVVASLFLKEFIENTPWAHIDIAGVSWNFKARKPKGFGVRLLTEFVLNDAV


Assays:
[1] = target: Plasmodium berghei M1 aminopeptidase (Plasmodium berghei)
[2] = target: Plasmodium vivax M1 aminopeptidase (Plasmodium vivax)
[3] = target: Plasmodium berghei M17 aminopeptidase (Plasmodium berghei)
[4] = target: T1, Plasmodium falciparum M17 leucine aminopeptidase (Plasmodium falciparum)
[5] = target: T2, Plasmodium vivax M17 aminopeptidase (Plasmodium vivax)

Row | Molecule | Km of hydrolysis (release of NHMec, Michaelis-Menten kinetics) [1] [µM] | Km of hydrolysis (release of NHMec, Michaelis-Menten kinetics) [2] [µM] | Km of hydrolysis (release of NHMec, Michaelis-Menten kinetics, 1 mM CoCl2) [3] [µM] | Km of hydrolysis (release of NHMec, Michaelis-Menten kinetics, 1 mM CoCl2) [4] [µM] | Km of hydrolysis (release of NHMec, Michaelis-Menten kinetics, 1 mM CoCl2) [5] [µM]
1 | Leucine-Leucine-7-amido-4-methyl-coumarin (peptide) | 28.4 | 27.9 | 25 | 30.8 | 32.9
2 | LLLL-{AMC} [Leucine-Leucine-Leucine-Leucine-7-amido-4-methyl-coumarin] | 33.9 | 41.5 | 4.6 | 6.9 | 22.6
